In PMC8982864 (PLoS Biology, 2022):

Tests used:
[1] = biological target: FZD2 CRD (CRD2) CRD (Homo sapiens) (UniProt Q14332); conditions: cited from earlier work
[2] = biological target: CSPG4 D1401-560 401-560 (Homo sapiens) (UniProt Q6UVK1); conditions: cited from earlier work
[3] = biological target: CSPG4 domain 1 fragment, residues 401-560 (D1401-560), C-terminal GFP (UniProt Q6UVK1); experiment: Bio-layer interferometry (Octet Red 96, ForteBio); conditions: pH 7.5; 25°C; PBS (composition not stated)
Sequence of CSPG4 domain 1 fragment, residues 401-560 (D1401-560), C-terminal GFP (Q6UVK1 whole entry, the tested form may be a part): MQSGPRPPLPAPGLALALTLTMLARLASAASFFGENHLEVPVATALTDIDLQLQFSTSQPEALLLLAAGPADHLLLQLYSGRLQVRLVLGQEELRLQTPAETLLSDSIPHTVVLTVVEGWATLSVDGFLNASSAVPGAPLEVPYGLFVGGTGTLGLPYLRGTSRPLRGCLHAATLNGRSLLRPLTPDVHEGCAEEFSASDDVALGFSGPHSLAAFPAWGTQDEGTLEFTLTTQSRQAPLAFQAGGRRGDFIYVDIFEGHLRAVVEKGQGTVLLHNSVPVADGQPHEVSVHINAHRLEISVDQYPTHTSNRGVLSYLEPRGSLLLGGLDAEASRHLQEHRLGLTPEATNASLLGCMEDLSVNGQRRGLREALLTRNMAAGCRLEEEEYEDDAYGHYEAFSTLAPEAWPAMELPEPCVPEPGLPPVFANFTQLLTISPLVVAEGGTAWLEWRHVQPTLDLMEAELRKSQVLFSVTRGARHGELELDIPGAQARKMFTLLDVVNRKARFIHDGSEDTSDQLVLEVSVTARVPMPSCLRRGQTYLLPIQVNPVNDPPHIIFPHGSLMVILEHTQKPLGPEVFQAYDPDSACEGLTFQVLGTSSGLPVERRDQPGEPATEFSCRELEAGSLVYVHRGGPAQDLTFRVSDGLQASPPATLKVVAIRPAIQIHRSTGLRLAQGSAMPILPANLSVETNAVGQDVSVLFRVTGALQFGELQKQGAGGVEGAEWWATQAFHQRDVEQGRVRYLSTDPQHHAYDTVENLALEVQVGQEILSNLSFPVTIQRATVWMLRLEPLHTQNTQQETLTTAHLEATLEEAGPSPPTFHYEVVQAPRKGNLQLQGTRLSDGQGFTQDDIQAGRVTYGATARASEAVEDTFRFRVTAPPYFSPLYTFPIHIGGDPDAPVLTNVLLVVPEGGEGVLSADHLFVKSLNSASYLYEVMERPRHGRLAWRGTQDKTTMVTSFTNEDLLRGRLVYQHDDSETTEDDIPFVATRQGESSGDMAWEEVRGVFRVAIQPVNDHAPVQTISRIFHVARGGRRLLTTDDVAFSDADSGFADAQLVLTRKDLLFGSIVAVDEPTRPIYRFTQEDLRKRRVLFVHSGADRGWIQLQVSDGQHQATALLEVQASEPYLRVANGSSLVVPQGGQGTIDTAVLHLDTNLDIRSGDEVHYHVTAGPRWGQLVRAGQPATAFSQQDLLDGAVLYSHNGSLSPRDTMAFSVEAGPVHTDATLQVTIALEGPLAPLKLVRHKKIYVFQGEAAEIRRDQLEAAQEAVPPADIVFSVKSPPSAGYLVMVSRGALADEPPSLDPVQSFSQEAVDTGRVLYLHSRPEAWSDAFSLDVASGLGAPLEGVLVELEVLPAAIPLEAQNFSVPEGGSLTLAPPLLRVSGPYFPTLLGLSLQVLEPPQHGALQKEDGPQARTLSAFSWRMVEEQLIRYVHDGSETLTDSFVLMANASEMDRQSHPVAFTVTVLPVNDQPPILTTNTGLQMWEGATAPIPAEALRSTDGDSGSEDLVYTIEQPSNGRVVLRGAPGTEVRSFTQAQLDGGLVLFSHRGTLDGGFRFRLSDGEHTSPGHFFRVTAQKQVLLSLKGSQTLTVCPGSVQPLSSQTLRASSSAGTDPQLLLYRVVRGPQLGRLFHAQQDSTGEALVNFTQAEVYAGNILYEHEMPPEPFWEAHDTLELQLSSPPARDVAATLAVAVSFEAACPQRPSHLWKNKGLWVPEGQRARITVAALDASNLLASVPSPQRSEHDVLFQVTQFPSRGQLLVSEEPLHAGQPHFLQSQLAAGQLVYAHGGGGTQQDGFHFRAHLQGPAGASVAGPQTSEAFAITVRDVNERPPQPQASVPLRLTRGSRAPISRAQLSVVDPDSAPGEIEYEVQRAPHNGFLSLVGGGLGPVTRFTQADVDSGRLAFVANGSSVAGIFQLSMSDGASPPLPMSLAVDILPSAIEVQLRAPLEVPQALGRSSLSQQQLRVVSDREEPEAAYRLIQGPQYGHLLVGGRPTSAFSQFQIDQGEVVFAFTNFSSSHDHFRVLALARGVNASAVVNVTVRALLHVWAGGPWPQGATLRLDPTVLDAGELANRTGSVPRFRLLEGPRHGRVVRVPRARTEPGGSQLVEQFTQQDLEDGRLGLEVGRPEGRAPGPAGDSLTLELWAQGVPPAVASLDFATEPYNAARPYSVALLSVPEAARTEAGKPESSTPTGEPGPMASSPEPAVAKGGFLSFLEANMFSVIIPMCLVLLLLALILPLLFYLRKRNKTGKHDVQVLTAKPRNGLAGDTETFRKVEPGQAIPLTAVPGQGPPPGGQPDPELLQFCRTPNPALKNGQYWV

[4] = biological target: Frizzled-2 cysteine-rich domain Fc fusion (FZD2-CRD-Fc, 'CRD2') (UniProt Q14332); experiment: Bio-layer interferometry (Octet Red 96, ForteBio); conditions: 25°C, PBS (composition not stated)
[5] = biological target: TcdB-biotin (biotinylated full-length TcdB) (Clostridioides difficile (VPI 10463 …, UniProt P18177 1-2366)); experiment: ELISA; conditions: both partners purified

**Q.** Which results are given for TcdB (from UniProt P18177)?
**A.** Kd [1]: 19 nM; Kd [2]: 29 nM

**Q.** For “Toxin B (TcdB), full length, C-terminal 6xHis”, which KD [3] is on record?
**A.** approximately 10 nM

**Q.** What about the KD ([4]; pH 5) of the same molecule?
**A.** approximately 1 μM

**Q.** And the KD ([4]; pH 7.5)?
**A.** approximately 12 nM

B1: CSPG4 domain 1 fragment D1_(401-560) with C-terminal GFP tag (domain or fragment, UniProt Q6UVK1 401-560, looked up)
chain: LAPEAWPAMELPEPCVPEPGLPPVFANFTQLLTISPLVVAEGGTAWLEWRHVQPTLDLMEAELRKSQVLFSVTRGARHGELELDIPGAQARKMFTLLDVVNRKARFIHDGSEDTSDQLVLEVSVTARVPMPSCLRRGQTYLLPIQVNPVNDPPHIIFPHG
notes: not shown: GFP, C-terminal, kept
**Q.** Does B1 bind [5]?
**A.** binds
